Reference: PMC10397247

How the values were obtained:
4H3427-AA = molecular target: T1, 4H3427-AA; assay: two-hybrid library CCmax; settings: mean of both orientations;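 note: natural log of median RNA to DNA barcode read ratio; higher means stronger binding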
T1 chain: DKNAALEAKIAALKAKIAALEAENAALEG

4H3343-AA = molecular target: T2, 4H3343-AA; assay: two-hybrid library CCmax; settings: mean of both orientations;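 note: natural log of median RNA to DNA barcode read ratio; higher means stronger binding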
T2 chain: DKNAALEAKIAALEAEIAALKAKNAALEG

4H717-AA = molecular target: T3, 4H717-AA; assay: two-hybrid library CCmax; settings: mean of both orientations;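 note: natural log of median RNA to DNA barcode read ratio; higher means stronger binding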
T3 chain: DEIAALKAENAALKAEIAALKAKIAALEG

4H780-AA = molecular target: T4, 4H780-AA; assay: two-hybrid library CCmax; settings: mean of both orientations;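 note: natural log of median RNA to DNA barcode read ratio; higher means stronger binding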
T4 chain: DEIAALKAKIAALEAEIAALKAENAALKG

4H2883-AA = molecular target: T5, 4H2883-AA; assay: two-hybrid library CCmax; settings: mean of both orientations;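 note: natural log of median RNA to DNA barcode read ratio; higher means stronger binding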
T5 chain: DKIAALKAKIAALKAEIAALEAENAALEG

4H48-AA = molecular target: T6, 4H48-AA; assay: two-hybrid library CCmax; settings: mean of both orientations;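 note: natural log of median RNA to DNA barcode read ratio; higher means stronger binding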
T6 chain: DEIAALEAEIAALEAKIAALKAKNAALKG

4H2754-AA = molecular target: T7, 4H2754-AA; assay: two-hybrid library CCmax; settings: mean of both orientations
T7 chain: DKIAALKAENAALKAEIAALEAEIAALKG

4H3844-AA = molecular target: T8, 4H3844-AA; assay: two-hybrid library CCmax; settings: mean of both orientations
T8 chain: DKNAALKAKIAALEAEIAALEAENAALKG

4H2729-AA = molecular target: T9, 4H2729-AA; assay: two-hybrid library CCmax
T9 chain: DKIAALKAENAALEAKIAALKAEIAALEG

4H605-AA = molecular target: T10, 4H605-AA; assay: two-hybrid library CCmax; settings: mean of both orientations
T10 chain: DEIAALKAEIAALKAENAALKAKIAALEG

4H317-AA = molecular target: T11, 4H317-AA; assay: two-hybrid library CCmax; settings: mean of both orientations
T11 chain: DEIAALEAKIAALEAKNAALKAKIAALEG

4H429-AA = molecular target: T12, 4H429-AA; assay: two-hybrid library CCmax; settings: mean of both orientations
T12 chain: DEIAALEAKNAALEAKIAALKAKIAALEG

4H881-AA = molecular target: T13, 4H881-AA; assay: two-hybrid library CCmax; settings: mean of both orientations
T13 chain: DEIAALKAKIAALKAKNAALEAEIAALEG

4H566-AA = molecular target: T14, 4H566-AA; assay: two-hybrid library CCmax; settings: mean of both orientations
T14 chain: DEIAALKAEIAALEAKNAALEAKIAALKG

N5-AA = molecular target: T15, N5-AA; assay: two-hybrid library CCmax; settings: mean of both orientations
T15 chain: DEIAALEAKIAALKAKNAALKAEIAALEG

N6-AA = molecular target: T16, N6-AA; assay: two-hybrid library CCmax; settings: mean of both orientations
T16 chain: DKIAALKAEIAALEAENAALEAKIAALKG

4H794-AA = molecular target: T17, 4H794-AA; assay: two-hybrid library CCmax; settings: mean of both orientations
T17 chain: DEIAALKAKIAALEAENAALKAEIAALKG

4H906-AA = molecular target: T18, 4H906-AA; assay: two-hybrid library CCmax; settings: mean of both orientations
T18 chain: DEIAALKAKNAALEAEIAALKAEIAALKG

4H454-AA = molecular target: T19, 4H454-AA; assay: two-hybrid library CCmax; settings: mean of both orientations
T19 chain: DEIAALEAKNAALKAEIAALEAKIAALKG

4H342-AA = molecular target: T20, 4H342-AA; assay: two-hybrid library CCmax; settings: mean of both orientations
T20 chain: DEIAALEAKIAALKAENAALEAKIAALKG

4H3921-AA = molecular target: T21, 4H3921-AA; assay: two-hybrid library CCmax; settings: mean of both orientations
T21 chain: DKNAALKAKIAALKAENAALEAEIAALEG

4H2949-AA = molecular target: T22, 4H2949-AA; assay: two-hybrid library CCmax; settings: mean of both orientations
T22 chain: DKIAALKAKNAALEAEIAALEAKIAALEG

4H335-AA = molecular target: T23, 4H335-AA; assay: two-hybrid library CCmax; settings: mean of both orientations
T23 chain: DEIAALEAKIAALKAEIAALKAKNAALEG

4H3112-AA = molecular target: T24, 4H3112-AA; assay: two-hybrid library CCmax; settings: mean of both orientations
T24 chain: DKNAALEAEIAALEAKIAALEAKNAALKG

4H2944-AA = molecular target: T25, 4H2944-AA; assay: two-hybrid library CCmax; settings: mean of both orientations
T25 chain: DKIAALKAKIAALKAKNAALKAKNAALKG

4H993-AA = molecular target: T26, 4H993-AA; assay: two-hybrid library CCmax; settings: mean of both orientations
T26 chain: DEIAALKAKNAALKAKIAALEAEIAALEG

4H2837-AA = molecular target: T27, 4H2837-AA; assay: two-hybrid library CCmax; settings: mean of both orientations
T27 chain: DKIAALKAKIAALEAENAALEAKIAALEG

4H3606-AA = molecular target: T28, 4H3606-AA; assay: two-hybrid library CCmax; settings: mean of both orientations
T28 chain: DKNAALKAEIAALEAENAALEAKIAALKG

4H3655-AA = molecular target: T29, 4H3655-AA; assay: two-hybrid library CCmax; settings: mean of both orientations
T29 chain: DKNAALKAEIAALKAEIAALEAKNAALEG

4H678-AA = molecular target: T30, 4H678-AA; assay: two-hybrid library CCmax; settings: mean of both orientations
T30 chain: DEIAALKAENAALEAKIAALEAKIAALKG

4H3627-AA = molecular target: T31, 4H3627-AA; assay: two-hybrid library CCmax; settings: mean of both orientations
T31 chain: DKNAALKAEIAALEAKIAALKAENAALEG

4H1985-bH = molecular target: T32, 4H1985-bH; assay: two-hybrid library CCNG1
T32 chain: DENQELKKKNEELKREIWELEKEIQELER

4H3817-bH = molecular target: T33, 4H3817-bH; assay: two-hybrid library CCNG1
T33 chain: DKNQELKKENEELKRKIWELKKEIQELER

4H1804-bH = molecular target: T34, 4H1804-bH; assay: two-hybrid library CCNG1
T34 chain: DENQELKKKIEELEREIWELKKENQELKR

4H906-bH = molecular target: T35, 4H906-bH; assay: two-hybrid library CCNG1
T35 chain: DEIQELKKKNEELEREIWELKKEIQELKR

4H3974-bH = molecular target: T36, 4H3974-bH; assay: two-hybrid library CCNG1
T36 chain: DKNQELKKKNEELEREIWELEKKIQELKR

4H1899-bH = molecular target: T37, 4H1899-bH; assay: two-hybrid library CCNG1
T37 chain: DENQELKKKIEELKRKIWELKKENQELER

4H3631-bH = molecular target: T38, 4H3631-bH; assay: two-hybrid library CCNG1
T38 chain: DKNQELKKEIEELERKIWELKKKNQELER

4H619-bH = molecular target: T39, 4H619-bH; assay: two-hybrid library CCNG1
T39 chain: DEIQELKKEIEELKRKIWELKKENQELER

4H3613-bH = molecular target: T40, 4H3613-bH; assay: two-hybrid library CCNG1
T40 chain: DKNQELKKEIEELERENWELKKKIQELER

4H3129-bH = molecular target: T41, 4H3129-bH; assay: two-hybrid library CCNG1
T41 chain: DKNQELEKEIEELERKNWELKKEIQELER

4H3628-bH = molecular target: T42, 4H3628-bH; assay: two-hybrid library CCNG1
T42 chain: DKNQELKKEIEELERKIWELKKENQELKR

4H570-bH = molecular target: T43, 4H570-bH; assay: two-hybrid library CCNG1
T43 chain: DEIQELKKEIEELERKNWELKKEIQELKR

4H1544-bH = molecular target: T44, 4H1544-bH; assay: two-hybrid library CCNG1
T44 chain: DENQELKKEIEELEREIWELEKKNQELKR

4H1710-bH = molecular target: T45, 4H1710-bH; assay: two-hybrid library CCNG1
T45 chain: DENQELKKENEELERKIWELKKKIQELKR

4H850-bH = molecular target: T46, 4H850-bH; assay: two-hybrid library CCNG1
T46 chain: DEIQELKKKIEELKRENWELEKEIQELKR

4H3592-bA = molecular target: T47, 4H3592-bA; assay: two-hybrid library CCNG1
T47 chain: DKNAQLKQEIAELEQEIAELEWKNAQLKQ

4H3858-bH = molecular target: T48, 4H3858-bH; assay: two-hybrid library CCNG1
T48 chain: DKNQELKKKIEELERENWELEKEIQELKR

4H1629-bH = molecular target: T49, 4H1629-bH; assay: two-hybrid library CCNG1
T49 chain: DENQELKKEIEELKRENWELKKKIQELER

4H1449-bH = molecular target: T50, 4H1449-bH; assay: two-hybrid library CCNG1
T50 chain: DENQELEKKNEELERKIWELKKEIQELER

4H3172-bH = molecular target: T51, 4H3172-bH; assay: two-hybrid library CCNG1
T51 chain: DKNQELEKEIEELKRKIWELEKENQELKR

4H584-bH = molecular target: T52, 4H584-bH; assay: two-hybrid library CCNG1
T52 chain: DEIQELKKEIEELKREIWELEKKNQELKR

4H3414-bH = molecular target: T53, 4H3414-bH; assay: two-hybrid library CCNG1
T53 chain: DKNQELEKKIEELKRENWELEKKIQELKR

4H3638-bH = molecular target: T54, 4H3638-bH; assay: two-hybrid library CCNG1
T54 chain: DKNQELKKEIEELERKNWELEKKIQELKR

P8A-bH = molecular target: T55, P8A-bH; assay: two-hybrid library CCNG1
T55 chain: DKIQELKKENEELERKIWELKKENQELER

O6-bP = molecular target: T56, O6-bP; assay: two-hybrid library CCNG1
T56 chain: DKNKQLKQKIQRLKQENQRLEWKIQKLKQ

4H496-bA = molecular target: T57, 4H496-bA; assay: two-hybrid library CCNG1
T57 chain: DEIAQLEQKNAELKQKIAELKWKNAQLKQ

With DKIAALKAENAALEAKIAALKAEIAALEG [4H2729-AA] the interaction score (4H3427-AA) was -1.33, the interaction score (4H3343-AA) was -1.17 and the interaction score (4H717-AA) was 1.12. It also gave an interaction score (4H780-AA) of -1.31, an interaction score (4H2883-AA) of -1.1 and an interaction score (4H48-AA) of -0.497. It also gave an interaction score (4H2754-AA) of 2.26, an interaction score (4H3844-AA) of -1.03 and an interaction score (4H2729-AA) of 1.46. The interaction score (4H605-AA) was -1.37, the interaction score (4H317-AA) was 1.37 and the interaction score (4H429-AA) was 1.68. The interaction score (4H881-AA) was -0.0189, the interaction score (4H566-AA) was 0.192 and the interaction score (N5-AA) was 0.643. It also gave an interaction score (N6-AA) of 1.56, an interaction score (4H794-AA) of -1.09 and an interaction score (4H906-AA) of 1.15. The interaction score (4H454-AA) was 1.94, the interaction score (4H342-AA) was 2.18 and the interaction score (4H3921-AA) was -1.21. The interaction score (4H2949-AA) was 1.85, the interaction score (4H335-AA) was -0.622 and the interaction score (4H3112-AA) was -0.662. The interaction score (4H2944-AA) was -1.66, the interaction score (4H993-AA) was 1.96 and the interaction score (4H2837-AA) was 0.924. For the same binder, the interaction score (4H3606-AA) was -0.747, the interaction score (4H3655-AA) was -0.901 and the interaction score (4H678-AA) was 1.97. For the same binder, the interaction score (4H3627-AA) was 1.22.

DENQELEKKNEELERKIWELKKEIQELER [4H1449-bH] showed an interaction score (4H1985-bH) of -0.843, an interaction score (4H3817-bH) of -0.644 and an interaction score (4H1804-bH) of -0.461. For the same binder, the interaction score (4H906-bH) was -1.2, the interaction score (4H3974-bH) was 1.15 and the interaction score (4H1899-bH) was -0.126. It also gave an interaction score (4H3631-bH) of 0.733, an interaction score (4H619-bH) of -2.2 and an interaction score (4H3613-bH) of -0.131. The interaction score (4H3129-bH) was -0.319, the interaction score (4H3628-bH) was -0.479 and the interaction score (4H570-bH) was -0.108. For the same binder, the interaction score (4H1544-bH) was -0.787, the interaction score (4H1710-bH) was -0.366 and the interaction score (4H850-bH) was -0.674. For the same binder, the interaction score (4H3592-bA) was -0.126, the interaction score (4H3858-bH) was -0.658 and the interaction score (4H1629-bH) was -0.891. It also gave an interaction score (4H1449-bH) of -1.25, an interaction score (4H3172-bH) of -0.0351 and an interaction score (4H584-bH) of -0.0853. It also gave an interaction score (4H3414-bH) of -0.216 and an interaction score (4H3638-bH) of -0.0745.

DENQELKKEIEELKRENWELKKKIQELER [4H1629-bH] was tested, and the interaction score (4H1985-bH) was -0.16, the interaction score (4H3817-bH) was -0.618 and the interaction score (4H1804-bH) was -1.81. The interaction score (4H906-bH) was -0.794, the interaction score (4H3974-bH) was 0.236 and the interaction score (4H3631-bH) was -0.299. It also gave an interaction score (4H619-bH) of 0.577, an interaction score (P8A-bH) of 0.887 and an interaction score (4H3129-bH) of -0.581. For the same binder, the interaction score (O6-bP) was 1.7, the interaction score (4H570-bH) was -1.69 and the interaction score (4H1710-bH) was -2.67. The interaction score (4H850-bH) was 1.03, the interaction score (4H1629-bH) was -0.954 and the interaction score (4H3172-bH) was -0.534. The interaction score (4H584-bH) was 0.366, the interaction score (4H3414-bH) was -1.1 and the interaction score (4H496-bA) was -2.88. It also gave an interaction score (4H3638-bH) of -1.09.
